Source: paper doi:10.1101/2023.11.29.569239

Tests used:
MBP-ΔΔ DDX3X = MBP-ΔΔ DDX3X (UniProt O00571 132-607); experiment: EMSA
MBP-ΔΔ DDX3Y = MBP-ΔΔ DDX3Y (UniProt O15523 130-605); experiment: EMSA
MBP-DDX3Y full-length [1] = molecular target: T1, MBP-DDX3Y full-length (UniProt O15523 1-660); experiment: single-particle FRET
MBP-DDX3X full-length [2] = molecular target: T2, MBP-DDX3X full-length (UniProt O00571 1-662); experiment: single-particle FRET
MBP-DDX3Y full-length [3] = molecular target: T1, MBP-DDX3Y full-length; experiment: EMSA
MBP-DDX3X full-length [4] = molecular target: T2, MBP-DDX3X full-length; experiment: EMSA

T1 sequence (O15523 whole entry): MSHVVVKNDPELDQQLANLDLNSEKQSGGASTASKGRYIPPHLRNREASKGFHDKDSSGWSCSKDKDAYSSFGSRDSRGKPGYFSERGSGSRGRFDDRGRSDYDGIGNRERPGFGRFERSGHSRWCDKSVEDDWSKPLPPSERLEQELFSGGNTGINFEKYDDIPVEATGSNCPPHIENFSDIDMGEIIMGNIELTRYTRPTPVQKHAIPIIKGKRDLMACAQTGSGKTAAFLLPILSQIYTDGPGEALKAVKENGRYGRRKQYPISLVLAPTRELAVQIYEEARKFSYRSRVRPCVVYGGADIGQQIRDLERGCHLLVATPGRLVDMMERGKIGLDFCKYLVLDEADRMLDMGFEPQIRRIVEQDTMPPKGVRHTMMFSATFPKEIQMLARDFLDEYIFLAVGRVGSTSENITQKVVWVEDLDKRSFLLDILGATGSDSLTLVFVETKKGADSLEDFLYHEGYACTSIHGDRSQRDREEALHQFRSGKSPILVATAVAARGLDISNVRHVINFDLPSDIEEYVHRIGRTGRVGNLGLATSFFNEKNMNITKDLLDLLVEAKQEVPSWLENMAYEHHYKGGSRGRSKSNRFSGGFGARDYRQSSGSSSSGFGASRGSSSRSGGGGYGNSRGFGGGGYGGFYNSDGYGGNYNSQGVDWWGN
T2 sequence (O00571 whole entry): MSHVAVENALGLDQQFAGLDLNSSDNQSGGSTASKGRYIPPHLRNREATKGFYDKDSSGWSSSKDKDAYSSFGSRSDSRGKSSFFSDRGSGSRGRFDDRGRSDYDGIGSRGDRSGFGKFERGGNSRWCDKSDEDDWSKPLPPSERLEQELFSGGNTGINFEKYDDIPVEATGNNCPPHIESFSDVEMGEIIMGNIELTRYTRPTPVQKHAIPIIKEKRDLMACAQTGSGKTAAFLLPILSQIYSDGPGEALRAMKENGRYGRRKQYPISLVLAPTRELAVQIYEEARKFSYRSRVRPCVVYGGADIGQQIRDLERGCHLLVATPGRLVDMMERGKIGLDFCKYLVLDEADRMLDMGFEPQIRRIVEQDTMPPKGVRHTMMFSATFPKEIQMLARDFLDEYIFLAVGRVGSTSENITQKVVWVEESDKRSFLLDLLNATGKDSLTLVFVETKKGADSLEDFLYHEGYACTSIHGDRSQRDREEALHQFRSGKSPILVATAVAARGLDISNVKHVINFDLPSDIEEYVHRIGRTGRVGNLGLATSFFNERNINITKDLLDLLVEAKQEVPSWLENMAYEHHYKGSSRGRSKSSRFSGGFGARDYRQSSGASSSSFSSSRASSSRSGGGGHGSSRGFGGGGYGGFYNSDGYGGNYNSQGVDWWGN
Sequence of MBP-ΔΔ DDX3X (O00571 132-607, stated change not applied): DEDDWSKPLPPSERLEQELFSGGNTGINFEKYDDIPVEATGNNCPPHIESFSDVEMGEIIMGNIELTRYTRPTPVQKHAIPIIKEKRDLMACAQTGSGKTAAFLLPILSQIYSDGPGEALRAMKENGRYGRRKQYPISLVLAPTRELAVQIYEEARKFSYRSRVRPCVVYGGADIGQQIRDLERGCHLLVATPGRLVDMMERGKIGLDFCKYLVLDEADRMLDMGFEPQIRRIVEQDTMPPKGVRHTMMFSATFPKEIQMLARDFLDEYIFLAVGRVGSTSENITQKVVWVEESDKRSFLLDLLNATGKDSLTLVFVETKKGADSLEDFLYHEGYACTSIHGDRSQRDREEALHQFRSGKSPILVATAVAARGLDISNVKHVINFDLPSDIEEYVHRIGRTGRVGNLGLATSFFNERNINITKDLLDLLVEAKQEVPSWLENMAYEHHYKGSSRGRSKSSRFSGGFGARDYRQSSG
Sequence of MBP-ΔΔ DDX3Y (O15523 130-605, stated change not applied): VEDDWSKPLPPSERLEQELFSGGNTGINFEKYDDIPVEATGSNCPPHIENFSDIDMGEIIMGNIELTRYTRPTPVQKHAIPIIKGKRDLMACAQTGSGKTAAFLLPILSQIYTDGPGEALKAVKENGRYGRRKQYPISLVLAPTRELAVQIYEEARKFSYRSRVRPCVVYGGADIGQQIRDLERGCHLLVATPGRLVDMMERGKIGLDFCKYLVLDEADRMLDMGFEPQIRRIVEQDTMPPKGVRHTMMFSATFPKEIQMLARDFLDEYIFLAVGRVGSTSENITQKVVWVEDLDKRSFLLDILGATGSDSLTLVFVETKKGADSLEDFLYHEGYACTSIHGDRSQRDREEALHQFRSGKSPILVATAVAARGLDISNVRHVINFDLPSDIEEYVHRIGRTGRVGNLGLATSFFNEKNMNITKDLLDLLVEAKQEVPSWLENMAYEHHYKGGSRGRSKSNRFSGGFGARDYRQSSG

B1: dsRNA I (18-mer/42-mer) (dsRNA)
RNA 1: ACCGCUGCCGUCGCUCCG
RNA 2: UUUUUUUUUUUUUUUUUUUUUUUUCGGAGCGACGGCAGCGGU
Question: B1 was tested. Which binding signal (MBP-ΔΔ DDX3X) did it give?
Answer: > 3 fold Kd increase vs full-length

Question: And the binding signal (MBP-ΔΔ DDX3Y)?
Answer: > 3 fold Kd increase vs full-length

Question: What about the “apparent K (half saturation)” value (MBP-DDX3Y full-length [1]) of the same binder?
Answer: 3.7 ± 3 µM

Question: What about the “apparent K (half saturation)” value (MBP-DDX3X full-length [2]) of the same binder?
Answer: 4.1 ± 2 µM

Question: What about the Kd (MBP-DDX3Y full-length [3]) of the same binder?
Answer: 0.884 µM

Question: What about the Kd (MBP-DDX3X full-length [4]) of the same binder?
Answer: 0.519 µM
